# According to publication PMC5414288 (2017):
# No end group written: not given here. *: point of attachment. HYNIC = NNc1ccc(C(=O)*)cn1
# Molecular target: EGFR (on SKOV3 cells) (Homo sapiens, UniProt P00533)
# Assay: saturation binding assay on SKOV3 cells (radioligand)
binder,measurement,value
{HYNIC}-SSSYHWYGYTPQNVI (also: 99mTc-tricine labeled) [HYNIC-SSS-GE11 peptide],Kd,73 nM
